# B1: Rsp3690 (Cereibacter sphaeroides 2.4.1) (protein)
# chain: MSELSPCHVRSGRIMTVDGPIPSSALGHTLMHEHLQNDCRCWWNPPQEPERQYLAEAPISIEILSELRQDPFVNKHNIALDDLDLAIAEVKQFAAVGGRSIVDPTCRGIGRDPVKLRRISAETGVQVVMGAGYYLASSMPETAARLSADDIADEIVAEALEGTDGTDARIGLIGEIGVSSDFTAEEEKSLRGAARAQVRTGLPLMVHLPGWFRLAHRVLDLVEEEGADLRHTVLCHMNPSHMDPVYQATLAQRGAFLEFDMIGMDFFYADQGVQCPSDDEVARAILGLADHGYLDRILLSHDVFVKMMLTRYGGNGYAFVTKHFLPRLRRHGLDDAALETLMVTNPRRVFDASI
# Experiments:
# [1] = target: T1, Rsp3690 (Cereibacter sphaeroides, UniProt Q3IVY4); assay: 4-nitrophenol release at […] nm; settings: pH 8.3, 30 °C, 400 μM MnCl2, Mn enzyme
# T1 sequence (Q3IVY4 1-354): B1 chain
# [2] = substrate: CC(=O)Nc1ccc(Cl)cc1; assay: purified protein; assay type: biochemical, Cereibacter sphaeroides; settings: pH 8.3, 30 °C, 400 μM MnCl2, Mn enzyme
# [3] = substrate: CC(=O)OCc1ccccc1; assay: purified protein; assay type: biochemical, Cereibacter sphaeroides; settings: pH 8.3, 30 °C, 400 μM MnCl2, Mn enzyme
# [4] = substrate: CC(=O)Oc1c[nH]c2ccccc12; assay: purified protein; assay type: biochemical, Cereibacter sphaeroides; settings: 50 mM Hepes pH 8.3, 1% ethanol, 30 °C, 400 μM MnCl2, Mn enzyme
# [5] = substrate: CC(=O)Oc1ccc(OC(C)=O)cc1; assay: purified protein; assay type: biochemical, Cereibacter sphaeroides; settings: pH 8.3, 30 °C, 400 μM MnCl2, Mn enzyme
# [6] = substrate: CC(=O)Oc1ccc2c(C)cc(=O)oc2c1; assay: purified protein; assay type: biochemical, Cereibacter sphaeroides; settings: pH 8.3, 30 °C, 400 μM MnCl2, Mn enzyme
# [7] = substrate: CC(=O)Oc1ccc2ccccc2c1; assay: purified protein; assay type: biochemical, Cereibacter sphaeroides; settings: pH 8.3, 30 °C, 400 μM MnCl2, Mn enzyme
# [8] = substrate: CC(=O)Oc1cccc2ccccc12; assay: purified protein; assay type: biochemical, Cereibacter sphaeroides; settings: pH 8.3, 30 °C, 400 μM MnCl2, Mn enzyme
# [9] = substrate: CC(=O)Oc1ccccc1; assay: purified protein; assay type: biochemical, Cereibacter sphaeroides; settings: pH 8.3, 30 °C, 400 μM MnCl2, Mn enzyme
# [10] = substrate: CC(=O)Oc1cccnc1; assay: purified protein; assay type: biochemical, Cereibacter sphaeroides; settings: pH 8.3, 30 °C, 400 μM MnCl2, Mn enzyme
# [11] = substrate: CCC(=O)Oc1ccc2ccccc2c1; assay: purified protein; assay type: biochemical, Cereibacter sphaeroides; settings: pH 8.3, 30 °C, 400 μM MnCl2, Mn enzyme
# [12] = substrate: CCCC(=O)Oc1ccc2c(C)cc(=O)oc2c1; assay: purified protein; assay type: biochemical, Cereibacter sphaeroides; settings: pH 8.3, 30 °C, 400 μM MnCl2, Mn enzyme
# [13] = substrate: CCCC(=O)Oc1cccc2ccccc12; assay: purified protein; assay type: biochemical, Cereibacter sphaeroides; settings: pH 8.3, 30 °C, 400 μM MnCl2, Mn enzyme
# [14] = substrate: CCCCCCC(=O)Oc1ccc2c(C)cc(=O)oc2c1; assay: purified protein; assay type: biochemical, Cereibacter sphaeroides; settings: pH 8.3, 30 °C, 400 μM MnCl2, Mn enzyme
# [15] = substrate: CC(=O)Nc1ccc([N+](=O)[O-])cc1; assay: purified protein; settings: pH 8.3, 30 °C, 400 μM MnCl2, Mn enzyme
# [16] = substrate: CC(=O)Oc1ccc([N+](=O)[O-])cc1; assay: purified protein; settings: pH 8.3, 30 °C, 400 μM MnCl2, Mn enzyme
# [17] = substrate: CCCC(=O)Oc1ccc([N+](=O)[O-])cc1; assay: purified protein; settings: pH 8.3, 30 °C, 400 μM MnCl2, Mn enzyme
# [18] = substrate: CCCCCC(=O)Oc1ccc([N+](=O)[O-])cc1; assay: purified protein; settings: pH 8.3, 30 °C, 400 μM MnCl2, Mn enzyme
# [19] = substrate: CCCCCCCC(=O)Oc1ccc([N+](=O)[O-])cc1; assay: purified protein; settings: pH 8.3, 30 °C, 400 μM MnCl2, Mn enzyme
molecule,measurement,setting,value
"CCOP(=O)(OCC)Oc1ccc([N+](=O)[O-])cc1 [compound 27, paraoxon]",Km,[1],110 ± 10 µM
"COP(=O)(OC)Oc1ccc([N+](=O)[O-])cc1 [compound 26, methyl paraoxon]",Km,[1],420 ± 40 µM
B1,Km,[2],1600 ± 100 µM
same,kcat,[2],0.1 ± 0.01 s⁻¹
same,kcat/Km,[2],63 ± 7 M⁻¹ s⁻¹
same,Km,[3],1600 ± 100 µM
same,kcat,[3],2.5 ± 0.1 s⁻¹
same,kcat/Km,[3],1600 ± 100 M⁻¹ s⁻¹
same,Km,[4],1900 ± 200 µM
same,kcat,[4],2.3 ± 0.1 s⁻¹
same,kcat/Km,[4],1200 ± 100 M⁻¹ s⁻¹
same,Km,[5],900 ± 100 µM
same,kcat,[5],108 ± 4 s⁻¹
same,kcat/Km,[5],130000 ± 10000 M⁻¹ s⁻¹
same,Km,[6],240 ± 20 µM
same,kcat,[6],0.65 ± 0.02 s⁻¹
same,kcat/Km,[6],2700 ± 200 M⁻¹ s⁻¹
same,Km,[7],400 ± 40 µM
same,kcat,[7],40 ± 2 s⁻¹
same,kcat/Km,[7],100000 ± 10000 M⁻¹ s⁻¹
same,Km,[8],640 ± 70 µM
same,kcat,[8],4.8 ± 0.1 s⁻¹
same,kcat/Km,[8],7500 ± 100 M⁻¹ s⁻¹
same,Km,[9],2800 ± 200 µM
same,kcat,[9],30 ± 1 s⁻¹
same,kcat/Km,[9],11000 ± 1000 M⁻¹ s⁻¹
same,Km,[10],1800 ± 200 µM
same,kcat,[10],4.3 ± 0.3 s⁻¹
same,kcat/Km,[10],2400 ± 300 M⁻¹ s⁻¹
same,Km,[11],560 ± 30 µM
same,kcat,[11],83 ± 2 s⁻¹
same,kcat/Km,[11],150000 ± 10000 M⁻¹ s⁻¹
same,Km,[12],160 ± 20 µM
same,kcat,[12],4.9 ± 0.2 s⁻¹
same,kcat/Km,[12],31000 ± 4000 M⁻¹ s⁻¹
same,Km,[13],180 ± 20 µM
same,kcat,[13],9 ± 1 s⁻¹
same,kcat/Km,[13],50000 ± 6000 M⁻¹ s⁻¹
same,Km,[14],24 ± 3 µM
same,kcat,[14],0.063 ± 0.001 s⁻¹
same,kcat/Km,[14],2600 ± 300 M⁻¹ s⁻¹
same,Km,[15],650 ± 60 µM
same,kcat,[15],0.36 ± 0.02 s⁻¹
same,kcat/Km,[15],550 ± 60 M⁻¹ s⁻¹
same,Km,[16],520 ± 40 µM
same,kcat,[16],120 ± 3 s⁻¹
same,kcat/Km,[16],230000 ± 20000 M⁻¹ s⁻¹
same,Km,[17],56 ± 3 µM
same,kcat,[17],50 ± 1 s⁻¹
same,kcat/Km,[17],880000 ± 40000 M⁻¹ s⁻¹
same,Km,[18],48 ± 5 µM
same,kcat,[18],6.5 ± 0.2 s⁻¹
same,kcat/Km,[18],130000 ± 10000 M⁻¹ s⁻¹
same,Km,[19],33 ± 4 µM
same,kcat,[19],0.5 ± 0.01 s⁻¹
same,kcat/Km,[19],15000 ± 2000 M⁻¹ s⁻¹

# — paper PMC4045322 (Biochemistry, 2014)
